B1: FEM1A (parent)
chain: PCCSSSPEEPLNGESYESCCPTSR

Variants of: B1
Experiment: protein stability index of a GFP-peptide fusion (GPS, HEK-293T) (PSI 1-6); higher = more stable
Details: c terminus: a fixed tail appended
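Note: lentivirally expressed fusions sorted by FACS into six bins by GFP to DsRed ratio, PSI derived from sequencing read proportions per bin multiplied by bin number.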

Variant | protein stability index
PCCSSSPEEPLNGESYESCCLTSR [P21L] | 3.51
PCCSSSPEEPLNGESYESCCMTSR [P21M] | 2.28
PCCSSSPEEPLNGESYESCCYTSR [P21Y] | 3.01
PCCSSSPEEPLNGESYESCCFTSR [P21F] | 3.04
PCCSSSPEEPLNGESYESCCNTSR [P21N] | 3.81
PCCSSSPEEPLNGESYESCCWTSR [P21W] | 2.62
PCCSSSPEEPLNGESYESCCATSR [P21A] | 3.68
PCCSSSPEEPLNGESYESCCGTSR [P21G] | 3.78
PCCSSSPEEPLNGESYESCCITSR [P21I] | 2.6
PCCSSSPEEPLNGESYESCCRTSR [P21R] | 4.13
PCCSSSPEEPLNGESYETCCPTSR [S18T] | 4.19
PCCSSSPEEPLNGESYEQCCPTSR [S18Q] | 4.02
PCCSSSPEEPLNGESYEPCCPTSR [S18P] | 4
PCCSSSPEEPLNGESYENCCPTSR [S18N] | 3.68
PCCSSSPEEPLNGESYEMCCPTSR [S18M] | 3.06
PCCSSSPEEPLNGESYEACCPTSR [S18A] | 4.71
PCCSSSPEEPLNGESYEICCPTSR [S18I] | 3.03
PCCSSSPEEPLNGESYEYCCPTSR [S18Y] | 3.07
PCCSSSPEEPLNGESYERCCPTSR [S18R] | 3.11
PCCSSSPEEPLNGESYELCCPTSR [S18L] | 3.01
PCCSSSPVEPLNGESYESCCPTSR [E8V] | 2.38

Variant | protein stability index
PCCSSSPWEPLNGESYESCCPTSR [E8W] | 1.63
PCCSSSPDEPLNGESYESCCPTSR [E8D] | 3.51
PCCSSSPPEPLNGESYESCCPTSR [E8P] | 3.47
PCCSSSPIEPLNGESYESCCPTSR [E8I] | 3.06
PCCSSSPTEPLNGESYESCCPTSR [E8T] | 3.03
KCCSSSPEEPLNGESYESCCPTSR [P1K] | 2.47
QCCSSSPEEPLNGESYESCCPTSR [P1Q] | 3.95
WCCSSSPEEPLNGESYESCCPTSR [P1W] | 2.77
ECCSSSPEEPLNGESYESCCPTSR [P1E] | 4.44
ICCSSSPEEPLNGESYESCCPTSR [P1I] | 3.97
GCCSSSPEEPLNGESYESCCPTSR [P1G] | 4.6
HCCSSSPEEPLNGESYESCCPTSR [P1H] | 3.85
RCCSSSPEEPLNGESYESCCPTSR [P1R] | 3.47
PCCSSSPEEPLNGESYESCCPSSR [T22S] | 4.04
PCCSSSPEEPLNGESYESCCPKSR [T22K] | 3.79
PCCSSSPEEPLNGESYESCCPNSR [T22N] | 3.9
PCCSSSPEEPLNGESYESCCPESR [T22E] | 4.53
PCCSSSPEEPLNGESYESCCPGSR [T22G] | 3.53
PCCSSSPEEPLNGESYESCCPTYR [S23Y] | 3.09
PCCSSSPEEPLNGESYESCCPTNR [S23N] | 4.1
PCCSMSPEEPLNGESYESCCPTSR [S5M] | 2.53

Variant | protein stability index
PCCSPSPEEPLNGESYESCCPTSR [S5P] | 3.49
PCCSCSPEEPLNGESYESCCPTSR [S5C] | 3.38
PCCSDSPEEPLNGESYESCCPTSR [S5D] | 4.85
PCCSASPEEPLNGESYESCCPTSR [S5A] | 3.49
PCCSGSPEEPLNGESYESCCPTSR [S5G] | 3.66
PCCSLSPEEPLNGESYESCCPTSR [S5L] | 3.02
PCCSISPEEPLNGESYESCCPTSR [S5I] | 3.4
PCCSRSPEEPLNGESYESCCPTSR [S5R] | 3.28
PCCFSSPEEPLNGESYESCCPTSR [S4F] | 3.33
PCCCSSPEEPLNGESYESCCPTSR [S4C] | 1.94
PCCESSPEEPLNGESYESCCPTSR [S4E] | 3.87
PCCVSSPEEPLNGESYESCCPTSR [S4V] | 4.1
PCCGSSPEEPLNGESYESCCPTSR [S4G] | 3.5
PCCQSSPEEPLNGESYESCCPTSR [S4Q] | 3.67
PCCWSSPEEPLNGESYESCCPTSR [S4W] | 3.85
PCCSSSPEEPLTGESYESCCPTSR [N12T] | 3.89
PCCSSSPEEPLEGESYESCCPTSR [N12E] | 4.42
PCCSSSPEEPLRGESYESCCPTSR [N12R] | 3.48
PCCSSSPEEPLNGETYESCCPTSR [S15T] | 2.69
PCCSSSPEEPLNGEFYESCCPTSR [S15F] | 2.63
PCCSSSPEEPLNGELYESCCPTSR [S15L] | 3.07

Variant | protein stability index
PCCSSSPEEPLNGEIYESCCPTSR [S15I] | 3.66
PCCSSSPEEPLNGEQYESCCPTSR [S15Q] | 3.52
PCCSSSPEEPLNGEAYESCCPTSR [S15A] | 3.98
PCCSSSPEEPLNGEKYESCCPTSR [S15K] | 3.68
PCCSSSPEEPLNGESYESCCPTSD [R24D] | 5.19
PCCSSSPEEPLNGESYESCCPTSY [R24Y] | 4.25
PCCSSSPEEPLNGESYESCCPTSG [R24G] | 5.14
PCCSSSPEEPLNGESYESCCPTSH [R24H] | 4.75
PCCSSSPEEPLNGESYESCCPTSV [R24V] | 4.34
PCCSSSPEEPLNGESYESCCPTSC [R24C] | 4.33
PCQSSSPEEPLNGESYESCCPTSR [C3Q] | 5.4
PCKSSSPEEPLNGESYESCCPTSR [C3K] | 4.7
PCDSSSPEEPLNGESYESCCPTSR [C3D] | 5.82
PCPSSSPEEPLNGESYESCCPTSR [C3P] | 4.95
PCRSSSPEEPLNGESYESCCPTSR [C3R] | 4.23
PCHSSSPEEPLNGESYESCCPTSR [C3H] | 4.85
PCVSSSPEEPLNGESYESCCPTSR [C3V] | 5
PCESSSPEEPLNGESYESCCPTSR [C3E] | 5.27
PCCSSSPEEPLNAESYESCCPTSR [G13A] | 4.14
